The values that follow come from patent US20240115668A1, “TREATMENT OF SPINAL CORD INJURY WITH PTEN INHIBITOR” (KOLON TISSUEGENE, INC., priority 2020, published 2024).

Assay [1] deals with T1, PTEN (Homo sapiens, UniProt P60484). The conditions noted are these: previous study of Odriozola et al.; read-out: IC50 (in vitro PTEN activity, Odriozola et al.); cited from earlier work.
Target sequence in this assay (P60484 whole entry, species assumed): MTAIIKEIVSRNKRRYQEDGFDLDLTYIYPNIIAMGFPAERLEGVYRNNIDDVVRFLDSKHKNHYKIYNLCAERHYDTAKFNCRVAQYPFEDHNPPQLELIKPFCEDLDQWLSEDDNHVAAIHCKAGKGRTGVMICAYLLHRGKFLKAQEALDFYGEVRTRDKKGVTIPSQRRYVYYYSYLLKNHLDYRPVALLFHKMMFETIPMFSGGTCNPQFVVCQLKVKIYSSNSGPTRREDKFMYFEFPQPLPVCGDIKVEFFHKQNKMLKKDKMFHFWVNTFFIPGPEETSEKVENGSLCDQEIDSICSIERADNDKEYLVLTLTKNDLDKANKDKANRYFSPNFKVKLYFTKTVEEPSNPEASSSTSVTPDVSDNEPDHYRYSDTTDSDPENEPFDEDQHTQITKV
Assay [2] has as its target T1, PTEN. The experiment in a line: In vitro PTEN activity assay / IC50 assay (Malachite Green phosphate detection, C8-PIP3 liposome substrate). The format is biochemical. Also on record: purchased R&D Systems, Inc. Conditions: 10 μM peptide, 20 ng recombinant human PTEN, 0.1 mM C8-PIP3 liposome.
Target sequence in this assay (P60484 whole entry): as the sequence (P60484 whole entry, species assumed) above
Excerpt: In vitro PTEN activity assay was designed to check PTEN lipid phosphatase activity to convert phosphatidylinositol triphosphate (PIP3) to phosphatidylinositol diphosphate (PIP2) and produce phosphate ion (Pi). 1,2-dioctanoyl-sn-glycero-3-phospho-(1′-myo-inositol-3,4,5-triphosphate) (C8-PIP3) was used as PTEN substrate and prepared as lipid vesicle (liposome) with other phospholipids because PTEN as lipid phosphatase is an interfacial enzyme. For liposome preparation, C8-PIP3, DOPS (1,2-dioeloyl-sn-glycero-phosphoserine) and DOPC (1,2-dioeloyl-sn-glycero-phosphocholine) were mixed together with 800 μL of liposome buffer (50 mM Tris, 100 mM NaCl, 10 mM MgCl2, 5 mM DTT, pH=8.0) to final concentration of 0.1 mM of C8-PIP3, 0.25 mM DOPS and 0.25 mM DOPC. The lipid mixture was then sonicated at 4° C. for 30 min to produce liposome. After sonication, the liposome solution was briefly centrifuged to remove remaining lipids.
For PTEN activity assay, 20 ng of recombinant human PTEN protein was mixed with L of completed liposome solution. PTEN assay buffer (1 mM Tris, 20 mM DTT and 0.5% NP-40, pH=8.0) was added up to 100 μL as final volume. […] After incubation, the inorganic phosphate ions produced by PTEN protein was detected using Malachite Green phosphate detection kit. […]
All data represent experimentation in triplicate and the IC50 values were calculated by Prism 5 software (GraphPad Software). […]
For assay [3], the system named is endogenous Akt protein in PC12 cells. The experiment in a line: Western blot of Akt activation (phosphorylation) level in PC12 cell lysates. The conditions noted are these: differentiated PC12 cells, endogenous or overexpressed PTEN; TGN-1 10 and 100 μM, TGN-4 10 μM; 24 hr; anti-phospho Akt antibody. The format is cell-based, rat. Background: A western blot detects proteins with antibodies after separation by electrophoresis.
Description: PC12 rat pheochromocytoma cells were seeded to 6-well plate (0.6×10^6 cells/well) and cultured with DMEM media containing 7.5% FBS and 7.5% Goat Serum. After the cell confluency reached around 60˜ 70%, NGF (nerve growth factor, 50 ng/mL) was added to the PC12 cells for differentiation and incubated for 5 more days. Then, fresh media containing different amounts of TGN peptides in DMSO solution were added to each well and incubated further for 24 hr. For PTEN overexpression, PC12 cells were seeded in 6-well plate (1.0×10^6 cells/well) and differentiated with NGF (50 ng/mL) as above. DNA-Lipofectamine 2000 mixture was prepared for each well of cells to be transfected by firstly adding 2˜ 2.5 μg of human PTEN c-DNA into 500 μl of Opti-MEM. 3.75-8.75 μl of Lipofectamine 2000™ reagent was added next to the above diluted DNA solution, mixed gently and incubated for 25 minutes at room temperature. Growth media of PC12 cells in 6-well plate was exchanged with fresh media and 500 μl of the DNA-Lipofectamine 2000 complex was added to each well for transfection. Transfected cells were incubated at 37° C. in 5.0% CO2 incubator for 24-48 hours post-transfection before assaying for transgene expression.
After culturing, PC12 cells were collected from the 6-well plate and centrifuged down with bench-top centrifuger to make cell pellet (13,000 rpm, 5 min at RT). […]

Where no end group is shown, it is not given here.

As to “Cp23: synthetic phosphomimic peptide of Odriozola et al. encompassing PTEN AA368-390, no phosphorylated Serine residues (DVSDNEPDHYRYSDTTDSDPENE; UniProt P60484 368-390, looked up, fragment)”, in the assay with PTEN [1], the IC50 is about 1030 µM.
As for “RRRRRRRR-DEHDTEYTPDYRQETHFNSQPTDKSDVI-amide (RRRRRRRRDEHDTEYTPDYRQETHFNSQPTDKSDVI-NH2) [TGN-5, scrambled peptide of TGN-2/TGN-3]”, the “Inhibition of PTEN activity (in words)” value in the assay with PTEN [2] is given as “no significant inhibition of PTEN activity”.
Consider “RRRRRRRR-SDDEYTDNPDSRYVSDTPVDTEH-amide (RRRRRRRRSDDEYTDNPDSRYVSDTPVDTEH-NH2) [TGN-4, scrambled peptide of TGN-1, negative control]”, for which the “Activation (phosphorylation) level of Akt protein” value in assay [3] is given as “did not increase the activation level of AKT protein”. Moreover, the “Inhibition of PTEN activity (in words)” value in the assay with PTEN [2] is “no significant inhibition of PTEN activity”.

For orientation: IC50 means the concentration that inhibits the measured activity by half.
